Consider 1 molecule from patent US20230365658A1.

The target of the test is SARS-CoV-2 spike (S) glycoprotein, Omicron BA.4.6 (SARS-CoV-2), P0DTC2. The test can be described thus: cell-based or functional assay.

B1: mAb_v2130Vanderbilt_184_20220114_00112 (antibody, V domains shown)
VH: EVQLVESGGGLVKPGGSLRLSCAASGFTFRDVWMSWVRQAPGKGLEWVGRIKSKIDGGTTDYAAPVKGRFTISRDDSKNTLYLQMNSLKTEDTAVYYCTTAGSYYYDTVGPELPEGKFDYWGQGTLVTVSS
VL: not shown
The molecule B1 displayed a pseudoviral neutralization IC50 of 1.26 µg/mL.
